# Experimental data reported in the RNAGym collection of RNA variant scans (doi:10.1093/molbev/msab373).
# B1: Azoarcus group I ribozyme (parent)
# chain: GUGCCUUGCGCCGGGAAACCACGCAAGGGAUGGUGUCAAAUUCGGCGAAACCUAAGCGCCCGCCCGGGCGUAUGGCAACGCCGAGCCAAGCUUCGGCGCCUGCGCCGAUGAAGGUGUAGAGACUAGACGGCACCCACCUAAGGCAAACGCUAUGGUGAAGGCAUAGUCCAGGGAGUGGCGAAAGUCACACAAACCGG
# Variants of: B1
# Assay: reverse-splicing fitness (ratio to wild type); higher = more active; in vitro selection; Mg2+ level not given
# Outline: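 An in vitro group I ribozyme library with randomized positions was T7-transcribed and gel-purified. In triplicate, 10 pmol RNA in EPPS pH 7.5 was reacted with 50 pmoles of a 30-nt RNA substrate for 1 h at 37 °C across several added MgCl2 levels (1–48 mM), then stopped with EDTA. Products were reverse transcribed from a substrate-complementary primer, PCR-amplified and sequenced (HiSeq 4000). Fitness is a variant's read proportion after selection over that before, normalised to wild type.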
row,Variant,reverse-splicing fitness
1,C82U A145G C150U C169G U176C,0.0172
2,C82U A145G C150U C169G U176A,0.0129
3,C82U A145G C150U C169G U176G,0.00503
4,C82U A145G C169U,0.0143
5,C82U A145G C169A,0.00962
6,C82U A145G C169G,0.0106
7,C82U A145U C150U U176G,0.0898
8,C82U A145U C150U U176C,0.346
9,C82U A145U C150U U176A,0.274
10,C82U A145C C150G C169A U176C,0.00546
11,C82U A145C C150G C169A U176G,0.0049
12,C82U A145C C150G C169A U176A,0.00717
13,C82U A145U C150G C169G U176C,0.00478
14,C82U A145U C150G C169G U176G,0.0049
15,C82U A145U C150G C169G U176A,0.00745
16,C82U A145U C150U C169G U176A,0.00933
17,C82U A145U C150U C169G U176C,0.0107
18,C82U A145U C150U C169G U176G,0.00498
19,C82U C150U,0.369
20,C82U C150G,0.051
21,C82U C150A,0.0698

row,Variant,reverse-splicing fitness
1,C82U A120U U176C,0.0796
2,C82U A120U U176A,0.0428
3,C82U A120U U176G,0.0137
4,C82U A120U A145U C169G U176G,0.0013
5,C82U A120U A145U C169G U176C,0.00267
6,C82U A120U A145U C169G U176A,0.00182
7,C82U A145U C150A C169G,0.00614
8,C82U A145U C150A C169A,0.00771
9,C82U A145U C150A C169U,0.00825
10,C82U A145C C150A C169G,0.00677
11,C82U A145C C150A C169U,0.00854
12,C82U A145C C150A C169A,0.00751
13,C82U A145G C150U C169A,0.0113
14,C82U A145G C150U C169G,0.0102
15,C82U A145G C150U C169U,0.0153
16,C82U A145U C169G U176C,0.00956
17,C82U A145U C169G U176G,0.00447
18,C82U A145U C169G U176A,0.00811
19,C82U A145C C150U C169G U176A,0.0158
20,C82U A145C C150U C169G U176C,0.00881
21,C82U A145C C150U C169G U176G,0.0047

row,Variant,reverse-splicing fitness
1,C82U A145U C150A C169A U176C,0.00744
2,C82U A145U C150A C169A U176A,0.0106
3,C82U A145U C150A C169A U176G,0.00546
4,C82U A120U C150G C169G U176C,0.00212
5,C82U A120U C150G C169G U176A,0.00396
6,C82U A120U C150G C169G U176G,0.0022
7,C82U A145C C150G C169A,0.00743
8,C82U A145C C150G C169G,0.00699
9,C82U A145C C150G C169U,0.00824
10,C82U A145U C150A U176G,0.0221
11,C82U A145U C150A U176C,0.0543
12,C82U A145U C150A U176A,0.055
13,C82U A145C U176C,0.449
14,C82U A145C U176G,0.141
15,C82U A145C U176A,0.38
16,C82U A120U C150A C169U U176C,0.00331
17,C82U A120U C150A C169U U176G,0.00201
18,C82U A120U C150A C169U U176A,0.00411
19,C82U A120U A145U C150U C169U U176G,0.00217
20,C82U A120U A145U C150U C169U U176C,0.00368
21,C82U A120U A145U C150U C169U U176A,0.0028

row,Variant,reverse-splicing fitness
1,C82U C150A C169A,0.0107
2,C82U C150A C169U,0.0105
3,C82U C150A C169G,0.00731
4,C82U A145U C150A C169U U176C,0.0101
5,C82U A145U C150A C169U U176G,0.00535
6,C82U A145U C150A C169U U176A,0.0118
7,C82U A145G C150G C169U U176G,0.00689
8,C82U A145G C150G C169U U176C,0.0132
9,C82U A145G C150G C169U U176A,0.0125
10,C82U A145G C150U U176C,0.372
11,C82U A145G C150U U176A,0.315
12,C82U A145G C150U U176G,0.0868
13,C82U A145C C150A C169U U176A,0.0103
14,C82U A145C C150A C169U U176C,0.00693
15,C82U A145C C150A C169U U176G,0.00503
16,C82U A120U C169G U176C,0.00306
17,C82U A120U C169G U176A,0.00252
18,C82U A120U C169G U176G,0.0015
19,C82U A120U C150G C169G,0.0055
20,C82U A120U C150G C169A,0.00679
21,C82U A120U C150G C169U,0.00386
